Positions count from the first letter of the chain named.
Key:
Assay in all cases: cell-based or functional assay
thrombin = thrombin (human, UniProt P00734 328-622)
factor Xa = factor Xa (human, UniProt P00742 41-179; P00742 235-488, limits assumed)
[1] = target: T1, human neutrophil elastase (human, UniProt P08246 30-247, limits assumed)
T1 sequence (looked up): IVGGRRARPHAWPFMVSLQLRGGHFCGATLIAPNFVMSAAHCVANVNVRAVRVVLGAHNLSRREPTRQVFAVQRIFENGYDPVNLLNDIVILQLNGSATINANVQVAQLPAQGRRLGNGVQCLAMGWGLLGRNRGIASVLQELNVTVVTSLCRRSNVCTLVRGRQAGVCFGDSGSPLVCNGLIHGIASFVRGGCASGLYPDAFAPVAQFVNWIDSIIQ

human thrombin = human thrombin (human, UniProt P00734 328-622)
human factor Xa = human factor Xa (human, UniProt P00742 41-179; P00742 235-488, limits assumed)
Chain of human factor Xa (P00742 41-179 limits assumed, chain 1 of 2): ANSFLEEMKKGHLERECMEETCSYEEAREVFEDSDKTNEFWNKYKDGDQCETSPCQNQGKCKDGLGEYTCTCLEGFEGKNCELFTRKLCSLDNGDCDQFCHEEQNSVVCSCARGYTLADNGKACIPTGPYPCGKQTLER
Chain of human factor Xa (P00742 235-488 limits assumed, chain 2 of 2): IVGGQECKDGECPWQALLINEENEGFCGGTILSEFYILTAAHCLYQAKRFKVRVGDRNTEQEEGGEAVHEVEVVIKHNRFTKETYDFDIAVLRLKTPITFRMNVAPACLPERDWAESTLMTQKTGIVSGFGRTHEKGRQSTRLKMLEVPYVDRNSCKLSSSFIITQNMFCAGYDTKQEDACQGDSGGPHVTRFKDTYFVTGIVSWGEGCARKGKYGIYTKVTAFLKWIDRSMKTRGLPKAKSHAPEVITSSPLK

[2] = target: T2, human neutrophil cathepsin G (human, UniProt P08311 21-244)
T2 sequence (looked up): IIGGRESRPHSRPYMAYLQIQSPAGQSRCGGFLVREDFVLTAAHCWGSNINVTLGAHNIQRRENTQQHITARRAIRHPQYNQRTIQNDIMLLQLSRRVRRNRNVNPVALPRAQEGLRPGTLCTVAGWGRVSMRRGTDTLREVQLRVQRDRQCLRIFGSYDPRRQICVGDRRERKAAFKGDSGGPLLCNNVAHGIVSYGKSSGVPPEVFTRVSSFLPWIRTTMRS

Chain of factor Xa (P00742 41-179 limits assumed, chain 1 of 2): as the sequence (P00742 41-179 limits assumed, chain 1 of 2) above
Chain of factor Xa (P00742 235-488 limits assumed, chain 2 of 2): as the sequence (P00742 235-488 limits assumed, chain 2 of 2) above

B1: LEAI.477 (other)
chain: SPVDICTAKPRDIPMNPMCIYRSPEKKATEDEGSEQKIPEATNRRVWELSKANSRFATTFYQHLADSKNDNDNIFLSPLSISTAFAMTKLGACNDTLQQLMEVFKFDTISEKTSDQIHFFFAKLNCRLYRKANKASKLVSANRLFGDKSLTFNETYQDISELVYGAKLQPLDFKENAEQSRAAINKWVSNKTEGRITDVIPSEAINELTVLVLVNTIYFKGLWKSKFSPENTRKELFYKADGESCSASMMYQEGKFRYRRVAEGTQVLELPFKGDDITMVLILPKPEKSLAKVEKELTPEVLQEWLDELEEMMLVVHMPRFRIEDGFSLKEQLQDMGLVDLFSPEKSKLPGIVAEGRDDLYVSDAFHKAFLEVNEEGSEAAASTALEAPGRSLNPNRVTFKANRPFLVFIREVPLNTIIFMGRVANPCVK
thrombin
  IC50 IIa/UFH; HCA #4: 333 nM
Factor Xa
  IC50 fXa/UFH; HCA #4: 18 nM

B2: LEAI.478 (other)
chain: B1 chain with P389S
thrombin
  IC50 IIa/UFH; HCA #4: 100 nM
  rsd. IIa catG; CA #12; stg1 conc 200: 1%
  rsd. IIa hne; CA #12; stg1 conc 200: 79%
  rsd. IIa no add; CA #12; stg1 conc 200: 1%
Factor Xa
  IC50 fXa/UFH; HCA #4: 12 nM
  rsd. Xa catG; CA #12; stg1 conc 200: 1%
  rsd. Xa hne; CA #12; stg1 conc 200: 1%
  rsd. Xa no add; CA #12; stg1 conc 200: 1%

B3: LEAQ.517 (other)
chain: B1 chain with A385S, P389Q
[1]
  rsd IIa, HNE (CA #52, stg 1 conc 200): 3%
  rsd Xa, HNE (CA #52, stg 1 conc 200): 2%
Human thrombin
  IC50 IIa/UFH (HCA #6): 65 nM
  rsd IIa, no add (CA #52, stg 1 conc 200): 4%
Human factor Xa
  IC50 fXa/UFH (HCA #6): 27 nM
  rsd Xa, no add (CA #52, stg 1 conc 200): 2%
[2]
  rsd IIa, catG (CA #52, stg 1 conc 200): 2%
  rsd Xa, catG (CA #52, stg 1 conc 200): 1%

B4: LEAQ.516 (other)
chain: B1 chain with A385F, P389Q
[1]
  rsd IIa, HNE (CA #52, stg 1 conc 200): 9%
  rsd Xa, HNE (CA #52, stg 1 conc 200): 3%
Human thrombin
  IC50 IIa/UFH (HCA #6): 120 nM
  rsd IIa, no add (CA #52, stg 1 conc 200): 4%
Human factor Xa
  IC50 fXa/UFH (HCA #6): 25 nM
  rsd Xa, no add (CA #52, stg 1 conc 200): 3%
[2]
  rsd IIa, catG (CA #52, stg 1 conc 200): 5%
  rsd Xa, catG (CA #52, stg 1 conc 200): 1%

B5: LEAI.471 (other)
chain: B1 chain with P389R
thrombin
  IC50 IIa/UFH; HCA #2: 37 nM
  IC50 IIa/UFH; HCA #3: 35 nM
  rsd. IIa catG; CA #12; stg1 conc 200: 0%
  rsd. IIa catG; CA #14; stg1 conc 200: 1%
  rsd. IIa catG; CA #15; stg1 conc 200: 1%
  rsd. IIa hne; CA #12; stg1 conc 200: 62%
  rsd. IIa hne; CA #14; stg1 conc 200: 41%
  rsd. IIa hne; CA #15; stg1 conc 200: 65%
  rsd. IIa no add; CA #12; stg1 conc 200: 0%
  rsd. IIa no add; CA #14; stg1 conc 200: 2%
  rsd. IIa no add; CA #15; stg1 conc 200: 2%
Factor Xa
  IC50 fXa/UFH; HCA #2: 275 nM
  IC50 fXa/UFH; HCA #3: 320 nM
  rsd. Xa catG; CA #12; stg1 conc 200: 48%
  rsd. Xa catG; CA #14; stg1 conc 200: 59%
  rsd. Xa catG; CA #15; stg1 conc 200: 82%
  rsd. Xa hne; CA #12; stg1 conc 200: 86%
  rsd. Xa hne; CA #14; stg1 conc 200: 100%
  rsd. Xa hne; CA #15; stg1 conc 200: 103%
  rsd. Xa no add; CA #12; stg1 conc 200: 45%
  rsd. Xa no add; CA #14; stg1 conc 200: 44%
  rsd. Xa no add; CA #15; stg1 conc 200: 57%

B6: LEAI.481 (other)
chain: B1 chain with P389G
thrombin
  IC50 IIa/UFH; HCA #3: 220 nM
Factor Xa
  IC50 fXa/UFH; HCA #3: 24 nM

B7: LEAI (other)
chain: B1 chain with P389I
thrombin
  IC50 IIa/UFH; HCA #2: 45 nM
Factor Xa
  IC50 fXa/UFH; HCA #2: 37 nM

B8: LEAQ.509 (other)
chain: B1 chain with E387V, P389Q
[1]
  rsd IIa, HNE (CA #51, stg 1 conc 200): 1%
  rsd IIa, HNE (CA #52, stg 1 conc 200): 52%
  rsd Xa, HNE (CA #51, stg 1 conc 200): -3%
  rsd Xa, HNE (CA #52, stg 1 conc 200): 10%
Human thrombin
  IC50 IIa/UFH (HCA #5): 16 nM
  IC50 IIa/UFH (HCA #6): 18 nM
  rsd IIa, no add (CA #51, stg 1 conc 200): 1%
  rsd IIa, no add (CA #52, stg 1 conc 200): 1%
Human factor Xa
  IC50 fXa/UFH (HCA #5): 16 nM
  IC50 fXa/UFH (HCA #6): 20 nM
  rsd Xa, no add (CA #51, stg 1 conc 200): -1%
  rsd Xa, no add (CA #52, stg 1 conc 200): 3%
[2]
  rsd IIa, catG (CA #51, stg 1 conc 200): 0%
  rsd IIa, catG (CA #52, stg 1 conc 200): 6%
  rsd Xa, catG (CA #51, stg 1 conc 200): -1%
  rsd Xa, catG (CA #52, stg 1 conc 200): 1%

B9: LEAQ.521 (other)
chain: B1 chain with A385H, P389Q
Human thrombin
  IC50 IIa/UFH (HCA #6): 100 nM
Human factor Xa
  IC50 fXa/UFH (HCA #6): 25 nM

B10: LEAQ.507 (other)
chain: B1 chain with E387R, P389Q
[1]
  rsd IIa, HNE (CA #51, stg 1 conc 200): 2%
  rsd Xa, HNE (CA #51, stg 1 conc 200): -3%
Human thrombin
  IC50 IIa/UFH (HCA #5): 55 nM
  rsd IIa, no add (CA #51, stg 1 conc 200): 1%
Human factor Xa
  IC50 fXa/UFH (HCA #5): 55 nM
  rsd Xa, no add (CA #51, stg 1 conc 200): -2%
[2]
  rsd IIa, catG (CA #51, stg 1 conc 200): 2%
  rsd Xa, catG (CA #51, stg 1 conc 200): -2%

B11: 13C.432 (other)
chain: B1 chain with A385E, A388I, P389A
Human thrombin
  IC50 IIa/UFH; HCA #2: 460 nM
Human factor Xa
  IC50 fXa/UFH; HCA #2: 45 nM

B12: LEAQ.515 (other)
chain: B1 chain with A385L, P389Q
[1]
  rsd IIa, HNE (CA #52, stg 1 conc 200): 3%
  rsd Xa, HNE (CA #52, stg 1 conc 200): 2%
Human thrombin
  IC50 IIa/UFH (HCA #6): 110 nM
  rsd IIa, no add (CA #52, stg 1 conc 200): 5%
Human factor Xa
  IC50 fXa/UFH (HCA #6): 18 nM
  rsd Xa, no add (CA #52, stg 1 conc 200): 2%
[2]
  rsd IIa, catG (CA #52, stg 1 conc 200): 3%
  rsd Xa, catG (CA #52, stg 1 conc 200): 1%

B13: LEAQ.518 (other)
chain: B1 chain with A385T, P389Q
[1]
  rsd IIa, HNE (CA #52, stg 1 conc 200): 3%
  rsd Xa, HNE (CA #52, stg 1 conc 200): 2%
Human thrombin
  IC50 IIa/UFH (HCA #6): 50 nM
  rsd IIa, no add (CA #52, stg 1 conc 200): 4%
Human factor Xa
  IC50 fXa/UFH (HCA #6): 27 nM
  rsd Xa, no add (CA #52, stg 1 conc 200): 3%
[2]
  rsd IIa, catG (CA #52, stg 1 conc 200): 2%
  rsd Xa, catG (CA #52, stg 1 conc 200): 1%

B14: LEAI.479 (other)
chain: B1 chain with P389W
thrombin
  IC50 IIa/UFH; HCA #3: 280 nM
Factor Xa
  IC50 fXa/UFH; HCA #3: 100 nM

B15: LEAQ.505 (other)
chain: B1 chain with E387Q, P389Q
[1]
  rsd IIa, HNE (CA #51, stg 1 conc 200): 0%
  rsd Xa, HNE (CA #51, stg 1 conc 200): 1%
Human thrombin
  IC50 IIa/UFH (HCA #5): 18 nM
  rsd IIa, no add (CA #51, stg 1 conc 200): 0%
Human factor Xa
  IC50 fXa/UFH (HCA #5): 16 nM
  rsd Xa, no add (CA #51, stg 1 conc 200): 1%
[2]
  rsd IIa, catG (CA #51, stg 1 conc 200): 0%
  rsd Xa, catG (CA #51, stg 1 conc 200): -2%

B16: LEAQ.514 (other)
chain: B1 chain with A385V, P389Q
Human thrombin
  IC50 IIa/UFH (HCA #6): 105 nM
Human factor Xa
  IC50 fXa/UFH (HCA #6): 40 nM

B17: LEAI.473 (other)
chain: B1 chain with P389D
thrombin
  IC50 IIa/UFH; HCA #4: > 1000 nM
Factor Xa
  IC50 fXa/UFH; HCA #4: 28 nM

B18: LEAQ.501 (other)
chain: B1 chain with E387D, P389Q
[1]
  rsd IIa, HNE (CA #51, stg 1 conc 200): 3%
  rsd Xa, HNE (CA #51, stg 1 conc 200): 1%
Human thrombin
  IC50 IIa/UFH (HCA #5): 150 nM
  IC50 IIa/UFH (HCA #6): 140 nM
  rsd IIa, no add (CA #51, stg 1 conc 200): 2%
Human factor Xa
  IC50 fXa/UFH (HCA #5): 15 nM
  IC50 fXa/UFH (HCA #6): 19 nM
  rsd Xa, no add (CA #51, stg 1 conc 200): 1%
[2]
  rsd IIa, catG (CA #51, stg 1 conc 200): 3%
  rsd Xa, catG (CA #51, stg 1 conc 200): -2%

Source: US20060259987A1 (UNIVERSITY OF UTAH RESEARCH FOUNDATION, published 2006)
